The labels stand for the following.
T1: recombinant human Siglec15-his protein (human, UniProt Q6ZMC9 20-263)
T1 construct: In house made; Biotin-labeled in the capture ELISA
T1 sequence: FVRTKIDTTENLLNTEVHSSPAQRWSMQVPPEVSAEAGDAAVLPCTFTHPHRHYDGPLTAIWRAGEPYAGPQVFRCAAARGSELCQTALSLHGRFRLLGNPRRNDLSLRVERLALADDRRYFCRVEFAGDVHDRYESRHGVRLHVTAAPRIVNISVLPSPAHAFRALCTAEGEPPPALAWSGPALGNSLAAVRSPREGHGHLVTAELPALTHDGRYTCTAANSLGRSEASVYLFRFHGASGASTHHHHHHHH

T2: cynomolgus monkey Siglec15-his protein (cynomolgus monkey)
T2 construct: In house made; also called Cynomolgus Siglec15-his; cynomolgus Siglec15
T2 chain: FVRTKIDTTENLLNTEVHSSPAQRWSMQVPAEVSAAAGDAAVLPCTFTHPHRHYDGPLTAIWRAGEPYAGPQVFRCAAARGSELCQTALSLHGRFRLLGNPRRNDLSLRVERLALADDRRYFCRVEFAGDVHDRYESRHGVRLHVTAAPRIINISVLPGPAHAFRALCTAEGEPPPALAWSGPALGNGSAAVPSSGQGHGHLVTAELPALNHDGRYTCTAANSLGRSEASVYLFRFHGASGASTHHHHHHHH

T3: mouse Siglec15-his protein (mouse)
T3 construct: In house made
T3 chain: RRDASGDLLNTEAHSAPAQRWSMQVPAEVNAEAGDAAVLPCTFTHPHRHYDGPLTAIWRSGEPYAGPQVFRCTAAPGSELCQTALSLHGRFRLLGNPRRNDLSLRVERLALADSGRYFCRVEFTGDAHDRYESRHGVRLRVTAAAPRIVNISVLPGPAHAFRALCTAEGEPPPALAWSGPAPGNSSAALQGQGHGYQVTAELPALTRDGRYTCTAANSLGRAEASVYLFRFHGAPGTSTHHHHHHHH

T4: human Siglec15-mouse Fc protein (human)
T4 construct: In house made
T4 chain: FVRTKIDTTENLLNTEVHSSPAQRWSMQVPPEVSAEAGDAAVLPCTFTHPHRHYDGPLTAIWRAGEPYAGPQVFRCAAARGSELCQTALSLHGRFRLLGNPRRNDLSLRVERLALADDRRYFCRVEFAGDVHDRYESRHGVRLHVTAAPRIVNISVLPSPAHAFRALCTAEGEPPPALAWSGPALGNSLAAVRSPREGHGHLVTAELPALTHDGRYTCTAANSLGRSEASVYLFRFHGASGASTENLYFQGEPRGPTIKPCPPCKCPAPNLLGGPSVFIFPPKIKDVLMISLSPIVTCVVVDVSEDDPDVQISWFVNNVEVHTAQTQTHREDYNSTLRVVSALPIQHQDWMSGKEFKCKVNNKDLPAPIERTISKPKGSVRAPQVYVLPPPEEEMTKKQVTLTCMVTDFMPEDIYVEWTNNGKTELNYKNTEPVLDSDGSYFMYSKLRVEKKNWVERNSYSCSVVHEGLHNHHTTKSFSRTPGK

B1: anti-Siglec15 benchmark (ch5G12) (antibody, human IgG1, kappa, V domains shown)
VH: QVQLQQPGAELVKPGASVKMSCKASGYTFTSYWITWVIQRPGQGLEWIGDIYCGSDTMHYNEKFKNKATLTVDTSSSTAYMQLSSLTSEDSAVYYCARWWDYGSSYDYFDYWGQGTTLTVSS
VL: DIKMTQSPSSMYASLGERVTITCKASQDINSYLSWFQQKPGKSPKTLIYRANRLVDGVPSRFSGSGSGQDYSLTISSLEYEDMGIYYCLQYDEFPYTFGGGTKLEIKR
notes: ch5G12 (US 20190202912A1); also called BM; Siglec15-ch5G9
B2: A2A5C7E8 (antibody, V domains shown)
VH: EVQLVQSGAEVKKPGESLRISCKGSGYSFTTYWISWVRQMPGKGLEWMGLIDPSDSYTNYSPSFQGHVTISTDKSISTAYLQWSSLKASDTAMYYCARGGYYGSEEDYWGQGTLVTVSS
VL: EIVLTQSPGTLSLSPGERATLSCRASQSVSSSRLAWFQQKSGQAPRLLIFDASSRATGIPDRFSGSGSGTDFTLTISRLEPEDFAVYYCQQYGSSPRTFGQGTKVEFK
notes: Fully human antibody from transgenic mouse hybridoma; also called A2A5C7E8-1
B3: A2A5C7E8-2 (antibody, human IgG1, kappa, V domains shown)
VH: B2 VH with D55E
VL: EIVLTQSPGTLSLSPGERATLSCRASQSVSSSRLAWFQQKSGQAPRLLIFDASSRATGIPDRFSGSGSGTDFTLTISRLEPEDFAVYYCQQYGSSPRTFGQGTKVEFKR
notes: Variant of A2A5C7E8 modified in VH CDR2 (X1 = E)
B4: A2A5C7E8-3 (antibody, human IgG1, kappa, V domains shown)
VH: B2 VH with Q65K
VL: B3 VL
notes: Variant of A2A5C7E8 modified in VH CDR2 (X2 = K)
B5: B2D7H7A3C1 (antibody, V domains shown)
VH: QVQLQQSGAELVRPGTSVQMSCKAAGYTFTNYWIGWVKQRPGHGLEWVGDIHPGINYTNNNEKFRGKATLTADTSSNTAYMQLRGLTSDDSAIYYCARVDYDYDGSYIMDYWGQGTSVTVSS
VL: QIVLSQSPALLSASPGEKVTMTCRASSSVSYMYWYQQKPGSSPKPWIYATSNLTSGVPARFSGSGSGTSYSLTISRVEAEDAATYFCQQWNSKPWTFGGGSKLEIR
notes: Mouse monoclonal antibody from hybridoma; also called mouse B2D7H7A3C1
B6: B2H2H1H7 (antibody, V domains shown)
VH: B5 VH with N77S
VL: B5 VL with V3I, K102R
notes: Mouse monoclonal antibody from hybridoma; also called mouse B2H2H1H7; B2H2H1A7
B7: B2G12H3E8 (antibody, V domains shown)
VH: B5 VH with Q5K, A25V, N77S
VL: B5 VL
notes: Mouse monoclonal antibody from hybridoma; also called mouse B2G12H3E8
B8: A1E10G7H9 (antibody, V domains shown)
VH: QVQLQESGPGLVKPSGTLSLTCAVSGGSISSSNWWHWVRQPPGKGLEWIGEIYHSGNTNYKPSLKSRVTISVDKSKNQFSLKLSSVTAADTAVYYCARDEGNGWSNAFDIWGQGTMVTVSS
VL: ENVLTQSPGTLSLSPGERVTLSCRASQSVSSSYLAWYQQKPGQAPRFLIYGASGGATGIPDRFSGSGSGTDFTLTISRLEPEDFAVYYCQQYGSSPITFGQGTRLEIK
notes: Fully human antibody from transgenic mouse hybridoma

The record followed here is patent publication US20230106715A1 (BIOSION, published 2023).

Where a chain is given by its changes, count along the chain named.

For one experiment, the target named is T1, recombinant human Siglec15-his protein. Description: SPR Biacore T200, antibody captured by anti-human IgG, antigen as analyte, 1:1 fit. The protocol:
(§1) Briefly, goat anti-human IgG (GE healthcare, Cat #BR100839, Human Antibody Capture Kit) was covalently linked to a CM5 chip (carboxy methyl dextran coated chip, GE healthcare, Cat #BR-1005-30) via primary amines, using a standard amine coupling kit provided by Biacore (GE healthcare, Pittsburgh, Pa., USA). Un-reacted moieties on the biosensor surface were blocked with ethanolamine. Then, purified anti-Siglec15 antibodies of the disclosure at the concentration of 13.3 nM and an anti-Siglec15 benchmark (ch5G12, also referred to as BM, see U.S. Patent Publication No. 20190202912A1, amino acid sequences of the heavy chain and light chain set forth in SEQ ID NOs: 24 and 25, respectively) at 13.3 nM, were respectively flowed onto the chip at a flow rate of 10 μL/min. Then, serially diluted recombinant human Siglec15-his protein (in house made, amino acid sequence set forth in SEQ ID NO: 20) or cynomolgus monkey Siglec15-his protein (in house made, amino acid sequence set forth in SEQ ID NO: 21), 2-fold serial dilution in HBS-EP⁺ buffer starting at 80 nM, were respectively flown onto the chip at a flow rate of 30 μL/min. The antigen-antibody association kinetics was followed for 2 minutes and the dissociation kinetics was followed for 10 minutes. The association and dissociation curves were fit to a 1:1 Langmuir binding model using BIAcore evaluation software.
Take B1: the Kd came to 0.422 nM, the off-rate constant (koff) was found to be 0.000955 s⁻¹ and the kon was 2.27e+06 M⁻¹ s⁻¹.
B2: the equilibrium dissociation constant (Kd) was 0.0383 nM, the koff came to 7.45e-05 s⁻¹ and the kon is 1.94e+06 M⁻¹ s⁻¹.
Consider B3, for which the Kd is 0.164 nM, the off-rate (koff) stood at 0.000273 s⁻¹ and the kon came out at 1.66e+06 M⁻¹ s⁻¹.
For B4 the same measures were 0.0396 nM, 7.46e-05 s⁻¹ and 1.88e+06 M⁻¹ s⁻¹.

The target in the next experiment is T2, cynomolgus monkey Siglec15-his protein. The experiment is described as above. The protocol:
as §1
Turning to B1, the Kd was 0.688 nM, the koff was determined as 0.000781 s⁻¹ and the on-rate constant (kon) stood at 1.13e+06 M⁻¹ s⁻¹.
The molecule B2 yielded a dissociation constant Kd of 0.0704 nM, a koff of 7.96e-05 s⁻¹ and a kon of 1.13e+06 M⁻¹ s⁻¹.
As for B3, binding was characterised by a dissociation constant (Kd) of 0.147 nM, the koff turned out to be 0.000167 s⁻¹ and the on-rate constant (kon) amounted to 1.14e+06 M⁻¹ s⁻¹.
For B4 the same measures were 0.0751 nM, 5.32e-05 s⁻¹ and 708000 M⁻¹ s⁻¹.

Another experiment has as its target T3, mouse Siglec15-his protein. Description: indirect ELISA on coated mouse Siglec15-his.
B1 yielded an EC50 of 0.211 nM.
B5 gave an EC50 of 0.994 nM.
The same measure, in the same setting: the value for B6 was 0.651 nM.
Consider B7, for which the EC50 was found to be 0.408 nM.

Another experiment addresses T4, human Siglec15-mouse Fc protein. Description: cell based blocking FACS: human Siglec15-mouse Fc in solution, blocked ligand human LRRC4C on LRRC4C-3F12-1B9 cells. Here is the method:
The activities of the anti-Siglec15 antibodies to block binding of Siglec15 protein to cell surface LRRC4C were evaluated by Flow Cytometry (FACS), using in house made LRRC4C-3F12-1B9 cells. Briefly, HEK-293 cells (ATCC #CRL-1573) were transfected with pCMV-T-P plasmid constructs with the nucleotide sequence encoding human LRRC4C (amino acid residues Met1-Ile640 of uniprot #Q9HCJ2) inserted between EcoRI and XbaI, following the instruction of lipofectamine 3000 transfection reagent (Thermo Fisher). A stable cell named LRRC4C-3F12-1B9 was chosen for subsequent cell based ligand-blocking assay.
Briefly, the anti-Siglec15 antibodies of the disclosure or controls were diluted with human Siglec15-mouse Fc protein (prepared in-house with SEQ ID NO: 26, 8 μg/ml […] in FACS buffer), starting at 66.67 nM with a 5-fold serial dilution, and incubated at room temperature for 40 minutes. Then, LRRC4C-3F12-1B9 cells were harvested from cell culture flasks, washed twice and re-suspended in PBS containing 2% v/v Fetal Bovine Serum (FACS buffer). Then, 1×10⁵ cells per well in 96 well-plates were incubated in 100 μL of the antibody/Siglec15-mouse Fc mixtures for 40 minutes at 4° C. […] Cells were washed twice and re-suspended in FACS buffer. Fluorescence was measured using a Becton Dickinson FACS Canto II-HTS equipment. Data was analyzed using Graphpad Prism software and IC₅₀ values were reported.
Regarding B1, half-maximal inhibition (IC50) required 0.586 nM.
Molecule B8 came in with an IC50 of 3.78 nM.
Still for that read-out and setting: the value for B2 was 2.07 nM.
